# Assay results from patent publication US11278600B2, “Human alpha-galactosidase variants” (Codexis, Inc., priority 2014, dated 2022).
# Residue numbers refer to the chain shown, from its start.
# B1: 326 (protein)
# chain: LDNGLARTPTMGWLHWERFMCNLDCQEEPDSCISEKLFMEMAERMVSEGWKDAGYEYLCIDDCWMAPQRDSEGRLQADPQRFPHGIRQLANYVHSKGLKLGIYADVGNKTCAGFPGSFGYYDIDAQTFADWGVDLLKFDGCYCDSLENLADGYKHMSLALNRTGRSIVYSCEWPLYMWPFQKPNYTEIRQYCNHWRNFADIDDSWASIKSILDWTSRNQERIVDVAGPGGWNDPDMLVIGNFGLSWDQQVTQMALWAIMAAPLFMSNDLRHISPQAKALLQDKDVIAINQDPLGKQGYQLRKGDNFEVWERPLSGDAWAVAIINRQEIGGPRSYTIPVASLGKGVACNPACFITQLLPVKRQLGFYNWTSRLKSHINPTGTVLLQLENTMQMSLKDLL
# modifications: Synthetic Polypeptide sequence of Variant No. 326 of mature Human GLA
# B2: 335 (protein)
# chain: B1 chain with R217F, K302Q, P337A, K343G, A350G, T369S
# modifications: Synthetic Polypeptide sequence of Variant No. 335 of mature Human GLA
# B3: 336 (protein)
# chain: B1 chain with R217F, D316L, P337A, A350G, Q362K, T369S
# modifications: Synthetic Polypeptide sequence of Variant No. 336 of mature Human GLA
# B4: 329 (protein)
# chain: B1 chain with I208V, R217F, D316L, P337A, K343D, Q362K
# modifications: Synthetic Polypeptide sequence of Variant No. 329 of mature Human GLA
# B5: 331 (protein)
# chain: B1 chain with I208V, R217F, R221K, K302Q, D316L, P337A, K343D, Q362K, I376V
# modifications: Synthetic Polypeptide sequence of Variant No. 331 of mature Human GLA
# B6: 332 (protein)
# chain: B1 chain with I208V, R217F, R221T, D247N, D316L, P337A, K343G, Q362K, F365L, I376V
# modifications: Synthetic Polypeptide sequence of Variant No. 332 of mature Human GLA
# B7: 328 (protein)
# chain: B1 chain with D247N, D316L, A350G, Q362K, T369S
# modifications: Synthetic Polypeptide sequence of Variant No. 328 of mature Human GLA
# B8: 334 (protein)
# chain: B1 chain with R217F, K302Q, P337A, A350G, T369S
# modifications: Synthetic Polypeptide sequence of Variant No. 334 of mature Human GLA
# B9: 337 (protein)
# chain: B1 chain with R217F, D316L, P337A, K343D, Q362K
# modifications: Synthetic Polypeptide sequence of Variant No. 337 of mature Human GLA
# B10: 333 (protein)
# chain: B1 chain with R217F, D247N, K302Q, A350G, Q362K, T369S
# modifications: Synthetic Polypeptide sequence of Variant No. 333 of mature Human GLA
# B11: 327 (protein)
# chain: B1 chain with P337A, K343D, A350G
# modifications: Synthetic Polypeptide sequence of Variant No. 327 of mature Human GLA
# B12: 330 (protein)
# chain: B1 chain with I208V, R217F, R221K, D247N, K302Q, D316L, P337A, K343D, Q362K
# modifications: Synthetic Polypeptide sequence of Variant No. 330 of mature Human GLA
# Key:
# Format in all cases: biochemical
# [1] = HTP-analysis of supernatants pretreated with bovine serum (MUGal hydrolysis); conditions: activity of the variant/activity of Rd3BB (SEQ ID NO: 13), yeast culture supernatant
# Outline: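 Yeast INVSc1 culture supernatants containing secreted GLA variants were mixed with bovine serum (20:80) and held 1 h at 37° C. Serum-treated samples then reacted with MUGal (4 mM stock) in citrate/McIlvaine buffer (pH 4.3/4.8) for 180 min at 37° C., were quenched with sodium carbonate, and read by fluorescence (Ex 355, Em 448 nm).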
# [2] = HTP-analysis of supernatants pretreated with base (MUGal hydrolysis); conditions: challenge at pH 8.2; activity of the variant/activity of Rd3BB (SEQ ID NO: 13); yeast culture supernatant
# Outline: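 GLA variants were secreted by transformed INVSc1 yeast grown 66-84 h at 30° C. Supernatants were exposed to neutral-to-basic buffers (pH 7.0-9.7) at 37° C for 1-18 h, then assayed with MUGal in acidic citrate/McIlvaine buffer, with fluorescence read after quenching.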
# [3] = HTP-analysis of supernatants pretreated with acid (MUGal hydrolysis); conditions: challenge at pH 4.0; activity of the variant/activity of Rd3BB (SEQ ID NO: 13); yeast culture supernatant
# Outline: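 Yeast INVSc1 supernatant, GLA variants; acid challenge: McIlvaine pH 3.3-4.3, 37° C., 1-3 h. Assay: MUGal in McIlvaine pH 4.8 plus citrate pH 4.3, 37° C., 30-180 min, Na2CO3 stop, Ex 355/Em 448 nm.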
# [4] = HTP-analysis of yeast culture supernatants, no challenge (MUGal hydrolysis); conditions: activity of the variant/activity of Rd3BB (SEQ ID NO: 13), yeast culture supernatant
# Outline: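 Activity read as 4-methylumbelliferyl α-D-galactopyranoside hydrolysis: fluorescence (355/448 nm) after sodium carbonate stop, following 30-180 min at 37° C with 2 mM MUGal stock at pH 4.6–4.8. Enzyme source is unchallenged culture supernatant of INVSc1 yeast expressing GLA variants, grown 66-84 h at 30° C.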
Molecule,Relative Activity of GLA Variants After Challenge with Serum [1],Relative Activity of GLA Variants After Challenge at pH 8.2 [2],Relative Activity of GLA Variants After Challenge at pH 4.0 [3],Relative Activity of GLA Variants After No Challenge (NC) [4]
B1,+++ (+++ = >2.5 relative activity over Rd3BB (SEQ ID NO: 13)),+++ (+++ = >2.5 relative activity over Rd3BB (SEQ ID NO: 13)),+++ (+++ = >2.5 relative activity over Rd3BB (SEQ ID NO: 13)),++ (++ = >1.5 to 2.5 relative activity over Rd3BB (SEQ ID NO: 13))
B2,+++ (+++ = >2.5 relative activity over Rd3BB (SEQ ID NO: 13)),+++ (+++ = >2.5 relative activity over Rd3BB (SEQ ID NO: 13)),+++ (+++ = >2.5 relative activity over Rd3BB (SEQ ID NO: 13)),++ (++ = >1.5 to 2.5 relative activity over Rd3BB (SEQ ID NO: 13))
B3,− (− = <0.5 relative activity to Rd3BB (SEQ ID NO: 13)),+ (+ = 0.5 to 1.5 relative activity over Rd3BB (SEQ ID NO: 13)),+ (+ = 0.5 to 1.5 relative activity over Rd3BB (SEQ ID NO: 13)),+ (+ = 0.5 to 1.5 relative activity over Rd3BB (SEQ ID NO: 13))
B4,++ (++ = >1.5 to 2.5 relative activity over Rd3BB (SEQ ID NO: 13)),++ (++ = >1.5 to 2.5 relative activity over Rd3BB (SEQ ID NO: 13)),++ (++ = >1.5 to 2.5 relative activity over Rd3BB (SEQ ID NO: 13)),+ (+ = 0.5 to 1.5 relative activity over Rd3BB (SEQ ID NO: 13))
B5,+ (+ = 0.5 to 1.5 relative activity over Rd3BB (SEQ ID NO: 13)),++ (++ = >1.5 to 2.5 relative activity over Rd3BB (SEQ ID NO: 13)),++ (++ = >1.5 to 2.5 relative activity over Rd3BB (SEQ ID NO: 13)),+ (+ = 0.5 to 1.5 relative activity over Rd3BB (SEQ ID NO: 13))
B6,+ (+ = 0.5 to 1.5 relative activity over Rd3BB (SEQ ID NO: 13)),+ (+ = 0.5 to 1.5 relative activity over Rd3BB (SEQ ID NO: 13)),+ (+ = 0.5 to 1.5 relative activity over Rd3BB (SEQ ID NO: 13)),+ (+ = 0.5 to 1.5 relative activity over Rd3BB (SEQ ID NO: 13))
B7,+ (+ = 0.5 to 1.5 relative activity over Rd3BB (SEQ ID NO: 13)),+ (+ = 0.5 to 1.5 relative activity over Rd3BB (SEQ ID NO: 13)),+ (+ = 0.5 to 1.5 relative activity over Rd3BB (SEQ ID NO: 13)),+ (+ = 0.5 to 1.5 relative activity over Rd3BB (SEQ ID NO: 13))
B8,++ (++ = >1.5 to 2.5 relative activity over Rd3BB (SEQ ID NO: 13)),+++ (+++ = >2.5 relative activity over Rd3BB (SEQ ID NO: 13)),++ (++ = >1.5 to 2.5 relative activity over Rd3BB (SEQ ID NO: 13)),+ (+ = 0.5 to 1.5 relative activity over Rd3BB (SEQ ID NO: 13))
B9,++ (++ = >1.5 to 2.5 relative activity over Rd3BB (SEQ ID NO: 13)),++ (++ = >1.5 to 2.5 relative activity over Rd3BB (SEQ ID NO: 13)),++ (++ = >1.5 to 2.5 relative activity over Rd3BB (SEQ ID NO: 13)),+ (+ = 0.5 to 1.5 relative activity over Rd3BB (SEQ ID NO: 13))
B10,+ (+ = 0.5 to 1.5 relative activity over Rd3BB (SEQ ID NO: 13)),++ (++ = >1.5 to 2.5 relative activity over Rd3BB (SEQ ID NO: 13)),++ (++ = >1.5 to 2.5 relative activity over Rd3BB (SEQ ID NO: 13)),++ (++ = >1.5 to 2.5 relative activity over Rd3BB (SEQ ID NO: 13))
B11,+++ (+++ = >2.5 relative activity over Rd3BB (SEQ ID NO: 13)),+++ (+++ = >2.5 relative activity over Rd3BB (SEQ ID NO: 13)),+++ (+++ = >2.5 relative activity over Rd3BB (SEQ ID NO: 13)),++ (++ = >1.5 to 2.5 relative activity over Rd3BB (SEQ ID NO: 13))
B12,+ (+ = 0.5 to 1.5 relative activity over Rd3BB (SEQ ID NO: 13)),+ (+ = 0.5 to 1.5 relative activity over Rd3BB (SEQ ID NO: 13)),++ (++ = >1.5 to 2.5 relative activity over Rd3BB (SEQ ID NO: 13)),++ (++ = >1.5 to 2.5 relative activity over Rd3BB (SEQ ID NO: 13))
